Common to all, as to test: single-molecule force spectroscopy
The target in experiment [1] is C5aR complexed with the PMX53 antagonist (free PMX53 injected) (human) (UniProt P21730).
In experiment [2] the target is C5aR R175V/Y258V double mutant (human) (UniProt P21730).
Experiment [3] deals with C5a anaphylatoxin chemotactic receptor 1 (C5aR), wild type (human) (UniProt P21730).
Experiment [4] addresses C5aR D282A mutant (human) (UniProt P21730).
For experiment [5], the target named is C5aR complexed with the PMX53 antagonist (free PMX53 injected) (human) (UniProt P21730). This is another data set of the same source.

A word on the Kd: it is a measure of binding affinity in units of concentration. A word on the residence time: it is the mean lifetime of the complex, commonly the reciprocal of the off-rate.

Like-named read-outs stand apart in the source and are kept apart here.

Chain of C5aR complexed with the PMX53 antagonist (free PMX53 injected) (human) (P21730 whole entry, looked up, one chain of several): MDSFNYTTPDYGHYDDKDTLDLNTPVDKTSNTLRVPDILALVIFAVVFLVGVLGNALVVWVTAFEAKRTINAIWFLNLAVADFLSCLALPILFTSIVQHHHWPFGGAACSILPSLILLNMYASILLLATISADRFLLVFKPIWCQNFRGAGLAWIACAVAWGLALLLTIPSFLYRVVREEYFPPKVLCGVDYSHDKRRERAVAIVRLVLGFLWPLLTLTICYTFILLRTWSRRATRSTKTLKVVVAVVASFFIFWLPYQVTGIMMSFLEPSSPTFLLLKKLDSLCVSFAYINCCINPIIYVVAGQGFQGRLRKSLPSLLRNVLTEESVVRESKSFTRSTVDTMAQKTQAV
Chain of complement C5a anaphylatoxin (P01031 678-751): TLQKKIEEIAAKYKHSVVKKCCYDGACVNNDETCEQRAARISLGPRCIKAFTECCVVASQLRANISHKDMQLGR
Chain of C5a anaphylatoxin chemotactic receptor 1 (C5aR), wild type (human) (P21730 whole entry): as the sequence (P21730 whole entry, looked up, one chain of several) above
Chain of C5aR R175V/Y258V double mutant (human) (P21730 whole entry R175V/Y258V): as the sequence (P21730 whole entry, looked up, one chain of several) above, with R175V, Y258V counted along it
Chain of C5aR D282A mutant (human) (P21730 whole entry D282A): as the sequence (P21730 whole entry, looked up, one chain of several) above, with D282A counted along it

Substance C5a des-Arg (ligand) displayed a residence time τ0.5 in experiment [1] of 0.5 ms.
In experiment [2], “Cys-Gly3-Phe-[{Orn}-Pro-{D-Cha}-Trp-Arg] (PMX53-Gly3-Cys), PMX53 antagonist as tethered to the AFM tip (peptide)” displayed a reduction in residence time against C5aR WT of 40%. Besides, in experiment [3], the Kd came to 4.7 nM and the equilibrium force Feq came out at 50 pN. Besides, the residence time in experiment [4] came to 0.1 ms.
For the substance “complement C5a anaphylatoxin (from UniProt P01031 678-751) (ligand)”, in experiment [1], the dissociation constant Kd came out at 800 mM, the equilibrium force Feq came to 23 pN and the residence time τ0.5 came out at 0.2 ms. In experiment [5], this substance showed an equilibrium force Feq of 23 pN.
